# T1: SaDyP1 (Streptomyces avermitilis, UniProt Q82QF8)
# T1 construct: gene SAVERM_549
# T1 sequence (Q82QF8 1-442): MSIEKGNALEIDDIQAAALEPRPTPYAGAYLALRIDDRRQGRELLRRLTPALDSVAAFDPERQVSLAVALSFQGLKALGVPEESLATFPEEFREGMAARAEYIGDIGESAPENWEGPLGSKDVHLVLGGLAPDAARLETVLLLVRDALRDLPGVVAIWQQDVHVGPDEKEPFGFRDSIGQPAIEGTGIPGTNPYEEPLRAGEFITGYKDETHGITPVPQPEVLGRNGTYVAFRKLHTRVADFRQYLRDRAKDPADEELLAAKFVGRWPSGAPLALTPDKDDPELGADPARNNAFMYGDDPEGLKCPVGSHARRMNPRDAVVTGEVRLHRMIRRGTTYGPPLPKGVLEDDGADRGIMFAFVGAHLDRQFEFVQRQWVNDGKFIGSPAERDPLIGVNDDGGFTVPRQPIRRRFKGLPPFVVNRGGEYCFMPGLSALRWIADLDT
# B1: SaDyP1 (Streptomyces avermitilis MA-4680 = NBRC 14893) (protein)
# chain: T1 sequence (Q82QF8 1-442)
# Experiments:
# SaDyP1 = target: T1, SaDyP1; experiment: initial-rate peroxidase assay, absorbance […] nm, Haldane fit; type: biochemical; conditions: 0.20 mM H2O2, 25 mM citrate, pH 4.0 in Table 3 and methods (pH 4.5 in Figure 5 legend), substrate inhibition model; substrate inhibition constant (Haldane)
# purified protein [1] = substrate: CCn1c(=NN=c2sc3cc(S(=O)(=O)O)ccc3n2CC)sc2cc(S(=O)(=O)O)ccc21; experiment: purified protein; type: biochemical, Streptomyces avermitilis; conditions: 0.20 mM H2O2, 25 mM citrate, pH 4.0 in Table 3 and methods (pH 4.5 in Figure 5 legend), substrate inhibition model
# purified protein [2] = substrate: COc1cccc(OC)c1O; experiment: purified protein; type: biochemical, Streptomyces avermitilis; conditions: 0.20 mM H2O2, 25 mM citrate, pH 4.0
Ki (SaDyP1) [mM],Molecule,Km (purified protein [1]) [µM],kcat (purified protein [1]) [s⁻¹],kcat/Km (purified protein [1]) [M⁻¹ s⁻¹],Km (purified protein [2]) [µM],kcat (purified protein [2]) [s⁻¹],kcat/Km (purified protein [2]) [M⁻¹ s⁻¹]
13,"CCn1c(=NN=c2sc3cc(S(=O)(=O)O)ccc3n2CC)sc2cc(S(=O)(=O)O)ccc21 [ABTS, 2,2′-azinobis [3-ethylbenzothiazoline-6-sulfonic acid]]",,,,,,
,B1,1200,2.8,2400,610,0.23,380
